Biological target: SARS-CoV-2 spike trimer (S trimer), soluble ectodomain (SARS-CoV-2), P0DTC2
Experiment: cryo-EM structure of Fab 2-4 with S trimer
Conditions: remark: other sources report otherwise

B1: Fab of antibody 2-4 (Fab, V domains shown)
VH: QVQLVQSGAEVKKPGASVKVSCKASGYTFTGYYMHWVRQAPGQGLEWMGWINPNSGGTNYTQMFQGRVTMTRDTSISTAYMEVSRLRSDDTAVYYCARDRSWAVVYYYMDVWGKGTTVTVSS
VL: QSALTQPPSASGSPGQSVTISCTGTSSDVGGYNYVSWYQQHPGKAPKLMIYEVSKRPSGVPDRFSGSKSGNTASLTVSGLQAEDEADYYCSSYAGSNNLVFGGGTKLTVL
With B1 the buried surface area of the epitope on RBD was 751 A2.

Source: patent publication US20230203138A1
